Results from patent US20140369940A1 (Biogen, published 2014).
One block for each binder: values may come before it. Ends that are not written are not given here.

Columns and labels:
[1] = molecular target: recombinant α-synuclein truncation aa 1-60 (human, UniProt P37840 1-60); experiment: direct ELISA
[2] = molecular target: T1, recombinant human β-synuclein (wt) (human, UniProt Q16143 1-134); experiment: direct ELISA
T1 construct: also called wt β-synuclein

[3] = molecular target: T2, human α-synuclein pepscan peptide A02 (residues 5-20) (human, also: C-terminally coupled via flexible linker to cellulose membrane); experiment: pepscan, immunoblotting
T2 construct: Printed as residues 5-20, although a 15-mer with 11 residues overlap to A01 would be 5-19
T2 peptide: MKGLSKAKEGVVAAAE

[4] = molecular target: T3, synthetic biotinylated α-synuclein peptide 5-30 (human, biotinylated (position not given)); experiment: in-solution ELISA, antibody coated at 2 µg/ml, biotinylated peptide
T3 construct: also called α-synuclein 5-30

T1 sequence (Q16143 whole entry): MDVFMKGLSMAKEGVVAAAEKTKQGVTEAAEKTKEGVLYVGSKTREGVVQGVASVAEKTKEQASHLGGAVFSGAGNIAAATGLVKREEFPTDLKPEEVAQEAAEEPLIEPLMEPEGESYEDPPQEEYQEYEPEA

binding result [1]: no binding (tested: coated at 2 ug/ml)
B1: recombinant human monoclonal antibody NI-202.21D11 (antibody, V domains shown)
VH: EVQLVESGAEVKKPGASVKVSCKASGYTFTNYAMHWVRQAPGQRLEWMGWINAGNGKRKYSQKFQDRVTINRDTSASTIYMELSSLGSEDTAVYYCAREEDHAGSGSYLSMDVWGQGTLVTVSS
VL: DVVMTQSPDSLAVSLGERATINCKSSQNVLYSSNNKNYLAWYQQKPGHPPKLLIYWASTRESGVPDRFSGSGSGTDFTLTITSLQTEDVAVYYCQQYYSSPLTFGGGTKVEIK
notes: Expressed recombinantly in HEK293 or CHO cells as a complete antibody (methods: human IgG1 or chimeric mouse IgG2a constant regions); conditioned medium used directly unless otherwise stated

binding result [2]: no binding | binding result [3]: no binding | binding result [4]: no binding
B2: recombinant human monoclonal antibody NI-202.12F4 (antibody, V domains shown)
VH: EVQLVQSGGGLVEPGGSLRLSCAVSGFDFEKAWMSWVRQAPGQGLQWVARIKSTADGGTTSYAAPVEGRFIISRDDSRNMLYLQMNSLKTEDTAVYYCTSAHWGQGTLVTVSS
VL: QSVLTQPPSVSVSPGQTARITCSGEALPMQFAHWYQQRPGKAPVIVVYKDSERPSGVPERFSGSSSGTTATLTITGVQAEDEADYYCQSPDSTNTYEVFGGGTKLTVL
notes: Lambda light chain; HEK293 or CHO conditioned medium
